The source of these data is patent US20220112250A1.

This experiment deals with Rat CaV2.2 channel (α1B splice variant e37a, α2δ1 and β3) expressed in HEK293T cells (rat) (UniProt Q02294). The experiment in a line: cell-based or functional assay.
Sequence of UniProt Q02294 (Q02294 other isoform, or with tags, fused parts or gaps mutant, chain 1 of 3): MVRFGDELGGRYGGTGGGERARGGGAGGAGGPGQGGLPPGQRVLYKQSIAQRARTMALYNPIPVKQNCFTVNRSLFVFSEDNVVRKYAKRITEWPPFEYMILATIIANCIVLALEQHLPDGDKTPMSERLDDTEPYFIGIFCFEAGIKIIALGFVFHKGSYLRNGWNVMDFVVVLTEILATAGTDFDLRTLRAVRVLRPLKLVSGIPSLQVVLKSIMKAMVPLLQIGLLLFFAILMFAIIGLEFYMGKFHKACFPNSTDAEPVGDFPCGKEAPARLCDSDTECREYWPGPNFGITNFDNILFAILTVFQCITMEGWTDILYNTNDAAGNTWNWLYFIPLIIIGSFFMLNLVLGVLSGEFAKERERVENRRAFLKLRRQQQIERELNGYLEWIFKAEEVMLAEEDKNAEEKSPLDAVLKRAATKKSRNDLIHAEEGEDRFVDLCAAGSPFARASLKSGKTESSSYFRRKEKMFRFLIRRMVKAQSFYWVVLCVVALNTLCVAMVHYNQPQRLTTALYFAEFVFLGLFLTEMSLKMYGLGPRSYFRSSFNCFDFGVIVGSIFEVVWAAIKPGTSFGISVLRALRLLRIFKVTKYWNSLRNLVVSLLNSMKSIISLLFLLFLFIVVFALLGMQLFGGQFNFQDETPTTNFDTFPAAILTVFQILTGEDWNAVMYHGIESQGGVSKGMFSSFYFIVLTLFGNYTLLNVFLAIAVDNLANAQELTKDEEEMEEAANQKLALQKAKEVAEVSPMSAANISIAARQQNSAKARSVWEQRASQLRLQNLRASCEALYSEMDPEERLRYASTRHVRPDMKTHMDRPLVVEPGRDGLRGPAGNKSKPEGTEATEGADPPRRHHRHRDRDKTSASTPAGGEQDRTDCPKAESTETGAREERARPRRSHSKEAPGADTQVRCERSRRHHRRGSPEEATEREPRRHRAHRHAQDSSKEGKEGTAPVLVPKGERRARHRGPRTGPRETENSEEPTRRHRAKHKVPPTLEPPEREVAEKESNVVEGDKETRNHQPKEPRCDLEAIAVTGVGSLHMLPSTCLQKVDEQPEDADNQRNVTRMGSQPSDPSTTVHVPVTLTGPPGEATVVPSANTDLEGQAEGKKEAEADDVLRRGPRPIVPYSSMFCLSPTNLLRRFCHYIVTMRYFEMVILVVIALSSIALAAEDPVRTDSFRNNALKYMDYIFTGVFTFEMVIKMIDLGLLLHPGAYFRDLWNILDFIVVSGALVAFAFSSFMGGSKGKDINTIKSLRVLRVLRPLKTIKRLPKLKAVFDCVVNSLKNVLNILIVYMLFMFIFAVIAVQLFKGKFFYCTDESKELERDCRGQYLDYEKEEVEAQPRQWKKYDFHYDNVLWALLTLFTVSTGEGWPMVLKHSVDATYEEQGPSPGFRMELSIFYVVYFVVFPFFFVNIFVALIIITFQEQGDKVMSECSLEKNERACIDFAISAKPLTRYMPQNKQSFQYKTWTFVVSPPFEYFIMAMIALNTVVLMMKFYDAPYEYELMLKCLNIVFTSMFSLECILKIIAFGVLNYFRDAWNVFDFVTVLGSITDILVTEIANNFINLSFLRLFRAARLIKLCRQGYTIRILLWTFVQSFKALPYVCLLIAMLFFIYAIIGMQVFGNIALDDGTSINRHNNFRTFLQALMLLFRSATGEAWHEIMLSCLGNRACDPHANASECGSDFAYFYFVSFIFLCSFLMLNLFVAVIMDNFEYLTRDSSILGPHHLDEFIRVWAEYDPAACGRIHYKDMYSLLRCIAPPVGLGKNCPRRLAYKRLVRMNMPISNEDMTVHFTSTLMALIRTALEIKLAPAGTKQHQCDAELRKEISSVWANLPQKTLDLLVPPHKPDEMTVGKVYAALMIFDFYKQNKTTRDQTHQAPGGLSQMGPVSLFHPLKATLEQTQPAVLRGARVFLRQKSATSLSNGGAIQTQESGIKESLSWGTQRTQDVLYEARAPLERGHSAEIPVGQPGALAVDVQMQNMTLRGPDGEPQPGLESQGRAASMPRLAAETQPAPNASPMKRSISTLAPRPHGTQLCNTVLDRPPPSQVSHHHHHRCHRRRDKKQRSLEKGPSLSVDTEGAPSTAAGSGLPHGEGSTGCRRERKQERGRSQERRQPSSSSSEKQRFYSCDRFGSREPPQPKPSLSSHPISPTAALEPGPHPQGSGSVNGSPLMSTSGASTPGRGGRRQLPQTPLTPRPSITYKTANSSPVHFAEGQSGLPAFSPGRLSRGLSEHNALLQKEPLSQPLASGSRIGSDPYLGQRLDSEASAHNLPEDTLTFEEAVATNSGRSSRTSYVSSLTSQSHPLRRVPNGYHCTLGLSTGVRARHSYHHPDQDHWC
Sequence of UniProt Q02294 (P54290 25-1091, stated change not applied, chain 2 of 3, further chain): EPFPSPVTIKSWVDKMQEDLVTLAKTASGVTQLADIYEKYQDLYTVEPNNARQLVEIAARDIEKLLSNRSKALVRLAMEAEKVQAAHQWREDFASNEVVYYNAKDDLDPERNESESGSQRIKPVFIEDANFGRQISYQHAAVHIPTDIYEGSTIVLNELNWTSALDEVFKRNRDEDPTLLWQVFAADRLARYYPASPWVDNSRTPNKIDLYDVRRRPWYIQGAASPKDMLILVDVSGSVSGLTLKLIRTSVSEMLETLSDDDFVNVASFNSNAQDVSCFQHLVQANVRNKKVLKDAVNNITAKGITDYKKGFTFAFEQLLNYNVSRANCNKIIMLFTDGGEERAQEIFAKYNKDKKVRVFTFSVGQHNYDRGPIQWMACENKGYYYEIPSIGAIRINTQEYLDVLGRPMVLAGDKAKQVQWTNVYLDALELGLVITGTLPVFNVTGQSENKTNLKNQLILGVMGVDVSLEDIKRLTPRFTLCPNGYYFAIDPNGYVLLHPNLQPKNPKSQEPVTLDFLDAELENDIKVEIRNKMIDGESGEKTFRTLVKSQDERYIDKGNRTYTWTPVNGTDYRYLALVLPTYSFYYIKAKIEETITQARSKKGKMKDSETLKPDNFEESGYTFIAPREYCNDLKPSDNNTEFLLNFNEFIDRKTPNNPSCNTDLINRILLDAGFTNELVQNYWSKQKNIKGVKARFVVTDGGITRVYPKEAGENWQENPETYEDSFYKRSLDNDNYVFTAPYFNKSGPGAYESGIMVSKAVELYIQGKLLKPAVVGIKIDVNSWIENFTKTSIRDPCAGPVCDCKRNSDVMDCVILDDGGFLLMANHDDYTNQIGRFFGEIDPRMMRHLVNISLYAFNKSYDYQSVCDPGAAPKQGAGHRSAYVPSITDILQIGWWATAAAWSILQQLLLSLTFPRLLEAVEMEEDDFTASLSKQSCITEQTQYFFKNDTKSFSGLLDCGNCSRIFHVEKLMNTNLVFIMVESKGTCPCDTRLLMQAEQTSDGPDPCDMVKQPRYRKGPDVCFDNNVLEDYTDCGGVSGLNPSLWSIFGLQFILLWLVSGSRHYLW
Sequence of UniProt Q02294 (P54287 whole entry, stated change not applied, chain 3 of 3, further chain, canonical isoform): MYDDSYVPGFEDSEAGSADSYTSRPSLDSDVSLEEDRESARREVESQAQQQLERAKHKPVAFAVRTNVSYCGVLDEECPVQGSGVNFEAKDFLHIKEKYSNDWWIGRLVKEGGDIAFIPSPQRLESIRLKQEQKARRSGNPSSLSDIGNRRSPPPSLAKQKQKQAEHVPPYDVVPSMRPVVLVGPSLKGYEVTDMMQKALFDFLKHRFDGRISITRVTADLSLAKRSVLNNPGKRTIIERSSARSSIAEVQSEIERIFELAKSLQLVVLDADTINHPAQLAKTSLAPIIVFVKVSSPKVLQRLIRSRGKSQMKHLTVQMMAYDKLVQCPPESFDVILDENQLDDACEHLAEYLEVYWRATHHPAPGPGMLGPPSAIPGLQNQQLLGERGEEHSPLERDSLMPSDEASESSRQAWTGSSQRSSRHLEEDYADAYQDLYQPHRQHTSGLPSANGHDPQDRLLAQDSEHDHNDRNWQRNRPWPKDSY

MVIIA (ziconotide) (peptide) displayed a half inhibitory concentration of CaV2.2 channel current of 0.0436 µM.
